From article PMC2871031 (Structure (London, England : 1993), 2010)
“And” between values parts separate entries of the source, which are not always exact repeats. Equal values may be shown once.

Assays:
[1] = target: ClpA (wild type), ATPγS-assembled hexamer (E. coli) (UniProt P0ABH9)
[2] = target: ClpA-Δ10 (linker deletion mutant, residues 145 to 154 deleted) (E. coli) (UniProt P0ABH9)
[3] = target: ClpA-Δ15 (linker deletion mutant, residues 145 to 159 deleted) (E. coli) (UniProt P0ABH9)
[4] = target: ClpA-Δ153 (N-domain-deleted form of ClpA) (E. coli) (UniProt P0ABH9)
[5] = target: T1, ClpP peptidase (tetradecamer) (UniProt P0A6G7 15-207); assay: cryo-EM structure
T1 sequence (P0A6G7 15-207): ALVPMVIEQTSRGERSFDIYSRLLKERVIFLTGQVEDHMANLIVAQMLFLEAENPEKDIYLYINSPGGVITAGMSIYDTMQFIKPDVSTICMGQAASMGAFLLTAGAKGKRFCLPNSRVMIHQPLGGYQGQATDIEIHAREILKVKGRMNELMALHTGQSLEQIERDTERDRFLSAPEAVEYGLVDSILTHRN

[6] = target: the molecule itself; assay: cryo-EM structure
[7] = target: T1, ClpP peptidase (tetradecamer); assay: cryo-electron microscopy with 2D averaging and variance maps of side-views
[8] = target: the molecule itself; assay: as above

GFP-SsrA
Km of GFP-SsrA degradation, 37 °C (μM protein monomer) [1]: 1.7
Km of GFP-SsrA degradation, 37 °C (μM protein monomer) [2]: 1.7
Km of GFP-SsrA degradation, 37 °C (μM protein monomer) [3]: 1.5
Km of GFP-SsrA degradation, 37 °C (μM protein monomer) [4]: 1

α-casein (natural protein)
Km of α-casein degradation, 37 °C (μM protein monomer) [1]: 0.2
Km of α-casein degradation, 37 °C (μM protein monomer) [3]: 0.35

B1: ClpA (wild type), ATPγS-assembled hexamer (enzyme, E. coli, UniProt P0ABH9 1-758, looked up)
chain: MLNQELELSLNMAFARAREHRHEFMTVEHLLLALLSNPSAREALEACSVDLVALRQELEAFIEQTTPVLPASEEERDTQPTLSFQRVLQRAVFHVQSSGRNEVTGANVLVAIFSEQESQAAYLLRKHEVSRLDVVNFISHGTRKDEPTQSSDPGSQPNSEEQAGGEERMENFTTNLNQLARVGGIDPLIGREKELERAIQVLCRRRKNNPLLVGESGVGKTAIAEGLAWRIVQGDVPEVMADCTIYSLDIGSLLAGTKYRGDFEKRFKALLKQLEQDTNSILFIDEIHTIIGAGAASGGQVDAANLIKPLLSSGKIRVIGSTTYQEFSNIFEKDRALARRFQKIDITEPSIEETVQIINGLKPKYEAHHDVRYTAKAVRAAVELAVKYINDRHLPDKAIDVIDEAGARARLMPVSKRKKTVNVADIESVVARIARIPEKSVSQSDRDTLKNLGDRLKMLVFGQDKAIEALTEAIKMARAGLGHEHKPVGSFLFAGPTGVGKTEVTVQLSKALGIELLRFDMSEYMERHTVSRLIGAPPGYVGFDQGGLLTDAVIKHPHAVLLLDEIEKAHPDVFNILLQVMDNGTLTDNNGRKADFRNVVLVMTTNAGVRETERKSIGLIHQDNSTDAMEEIKKIFTPEFRNRLDNIIWFDHLSTDVIHQVVDKFIVELQVQLDQKGVSLEVSQEARNWLAEKGYDRAMGARPMARVIQDNLKKPLANELLFGSLVDGGQVTVALDKEKNELTYGFQSAQKHKAEAAH
stoichiometry N [5]: 1 ClpA hexamers per ClpP tetradecamer
stoichiometry N [6]: 6 subunits

B2: ClpA-Δ15 (linker deletion mutant, residues 145 to 159 deleted) (enzyme, E. coli, UniProt P0ABH9 1-758, looked up)
chain: MLNQELELSLNMAFARAREHRHEFMTVEHLLLALLSNPSAREALEACSVDLVALRQELEAFIEQTTPVLPASEEERDTQPTLSFQRVLQRAVFHVQSSGRNEVTGANVLVAIFSEQESQAAYLLRKHEVSRLDVVNFISHGTRKEEQAGGEERMENFTTNLNQLARVGGIDPLIGREKELERAIQVLCRRRKNNPLLVGESGVGKTAIAEGLAWRIVQGDVPEVMADCTIYSLDIGSLLAGTKYRGDFEKRFKALLKQLEQDTNSILFIDEIHTIIGAGAASGGQVDAANLIKPLLSSGKIRVIGSTTYQEFSNIFEKDRALARRFQKIDITEPSIEETVQIINGLKPKYEAHHDVRYTAKAVRAAVELAVKYINDRHLPDKAIDVIDEAGARARLMPVSKRKKTVNVADIESVVARIARIPEKSVSQSDRDTLKNLGDRLKMLVFGQDKAIEALTEAIKMARAGLGHEHKPVGSFLFAGPTGVGKTEVTVQLSKALGIELLRFDMSEYMERHTVSRLIGAPPGYVGFDQGGLLTDAVIKHPHAVLLLDEIEKAHPDVFNILLQVMDNGTLTDNNGRKADFRNVVLVMTTNAGVRETERKSIGLIHQDNSTDAMEEIKKIFTPEFRNRLDNIIWFDHLSTDVIHQVVDKFIVELQVQLDQKGVSLEVSQEARNWLAEKGYDRAMGARPMARVIQDNLKKPLANELLFGSLVDGGQVTVALDKEKNELTYGFQSAQKHKAEAAH
stoichiometry N [7]: 1 ClpA hexamers per ClpP tetradecamer and 2 ClpA hexamers per ClpP tetradecamer
stoichiometry N [8]: 6 subunits

B3: ClpA-Δ10 (linker deletion mutant, residues 145 to 154 deleted) (enzyme, E. coli, UniProt P0ABH9 1-758, looked up)
chain: MLNQELELSLNMAFARAREHRHEFMTVEHLLLALLSNPSAREALEACSVDLVALRQELEAFIEQTTPVLPASEEERDTQPTLSFQRVLQRAVFHVQSSGRNEVTGANVLVAIFSEQESQAAYLLRKHEVSRLDVVNFISHGTRKSQPNSEEQAGGEERMENFTTNLNQLARVGGIDPLIGREKELERAIQVLCRRRKNNPLLVGESGVGKTAIAEGLAWRIVQGDVPEVMADCTIYSLDIGSLLAGTKYRGDFEKRFKALLKQLEQDTNSILFIDEIHTIIGAGAASGGQVDAANLIKPLLSSGKIRVIGSTTYQEFSNIFEKDRALARRFQKIDITEPSIEETVQIINGLKPKYEAHHDVRYTAKAVRAAVELAVKYINDRHLPDKAIDVIDEAGARARLMPVSKRKKTVNVADIESVVARIARIPEKSVSQSDRDTLKNLGDRLKMLVFGQDKAIEALTEAIKMARAGLGHEHKPVGSFLFAGPTGVGKTEVTVQLSKALGIELLRFDMSEYMERHTVSRLIGAPPGYVGFDQGGLLTDAVIKHPHAVLLLDEIEKAHPDVFNILLQVMDNGTLTDNNGRKADFRNVVLVMTTNAGVRETERKSIGLIHQDNSTDAMEEIKKIFTPEFRNRLDNIIWFDHLSTDVIHQVVDKFIVELQVQLDQKGVSLEVSQEARNWLAEKGYDRAMGARPMARVIQDNLKKPLANELLFGSLVDGGQVTVALDKEKNELTYGFQSAQKHKAEAAH
stoichiometry N [7]: 1 ClpA hexamers per ClpP tetradecamer and 2 ClpA hexamers per ClpP tetradecamer
stoichiometry N [8]: 6 subunits
